The target in assay [1] is L19-UG-TNFRII (human) (UniProt P20333). Kind of assay: SEC; Superdex 200 (S200) FPLC of purified L19-UG-TNFRII in native conditions. In general terms: In gel filtration, larger molecules generally elute earlier.
Assay [2] has the same target. In words: SDS-PAGE, non-reducing; SDS-PAGE 4%-12% of purified L19-UG-TNFRII under non-reducing conditions.

The stoichiometry N is the number of molecules, sites or subunits per partner or assembly. “L19-UG-TNFRII (from UniProt P20333 23-257)”: the stoichiometry N in the assay with L19-UG-TNFRII (human) [1] and with L19-UG-TNFRII (human) [2] was 2 throughout.

For the origin of these results see PMC3226451.
